Among the data in ChEMBL document CHEMBL1145332, “Design of inhibitors of orotidine monophosphate decarboxylase using bioisosteric replacement and determination of inhibition kinetics” (J Med Chem, 2006) are Km values, retold here.

Substrate in data set [1]: O=C(O)c1cc(=O)[nH]c(=O)n1[C@@H]1O[C@H](COP(=O)(O)O)[C@@H](O)[C@H]1O
The experiment in a line: Affinity for Methanobacterium thermoautotrophicum ODCase at 25 degreeC by ITC method. On the technique in general: ITC needs no label: the signal is the heat of the interaction.

Substrate in data set [2]: O=C(O)c1cc(=O)[nH]c(=O)n1[C@@H]1O[C@H](COP(=O)(O)O)[C@@H](O)[C@H]1O
The experiment in a line: Affinity for Methanobacterium thermoautotrophicum ODCase at 55 degreeC by ITC method.

Substrate in data set [3]: O=C(O)c1cc(=O)[nH]c(=O)n1[C@@H]1O[C@H](COP(=O)(O)O)[C@@H](O)[C@H]1O
The data set can be described thus: Affinity for Saccharomyces cerevisiae ODCase at 25 degreeC by UV-based assay.

Substrate in data set [4]: O=C(O)c1cc(=O)[nH]c(=O)n1[C@@H]1O[C@H](COP(=O)(O)O)[C@@H](O)[C@H]1O
The experiment in a line: Affinity for Plasmodium falciparum ODCase at 25 degreeC by UV-based assay.

B1: Orotidine 5'-phosphate decarboxylase (Methanobacterium thermoautotrophicum), O26232 (protein)
chain: MRSRRVDVMDVMNRLILAMDLMNRDDALRVTGEVREYIDTVKIGYPLVLSEGMDIIAEFRKRFGCRIIADFKVADIPETNEKICRATFKAGADAIIVHGFRGADSVRACLNVAEEMGREVFLLTEMSHPGAEMFIQGAADEIARMGVDLGVKNYVGPSTRPERLSRLREIIGQDSFLISPGVGAQGGDPGETLRFADAIIVGRSIYLADNPAAAAAGIIESIKDLLNP
For orientation: Km means the concentration of substrate that gives half-maximal velocity. Take B1: the Michaelis-Menten constant (Km) in data set [1] amounted to 2 µM; in data set [2], 5 µM.

B2: Orotidine 5'-phosphate decarboxylase (Saccharomyces cerevisiae S288c), P03962 (protein)
chain: MSKATYKERAATHPSPVAAKLFNIMHEKQTNLCASLDVRTTKELLELVEALGPKICLLKTHVDILTDFSMEGTVKPLKALSAKYNFLLFEDRKFADIGNTVKLQYSAGVYRIAEWADITNAHGVVGPGIVSGLKQAAEEVTKEPRGLLMLAELSCKGSLATGEYTKGTVDIAKSDKDFVIGFIAQRDMGGRDEGYDWLIMTPGVGLDDKGDALGQQYRTVDDVVSTGSDIIIVGRGLFAKGRDAKVEGERYRKAGWEAYLRRCGQQN
As to B2, the Km in data set [3] was 0.7 µM.

B3: Orotidine phosphate decarboxylase (Plasmodium falciparum), Q8T6J6 (protein)
chain: MGFKVKLEKRRNAINTCLCIGLDPDEKDIENFMKNEKENNYNNIKKNLKEKYINNVSIKKDILLKAPDNIIREEKSEEFFYFFNHFCFYIINETNKYALTFKMNFAFYIPYGSVGIDVLKNVFDYLYELNIPTILDMKINDIGNTVKNYRKFIFEYLKSDSCTVNIYMGTNMLKDICYDEEKNKYYSAFVLVKTTNPDSAIFQKNLSLDNKQAYVIMAQEALNMSSYLNLEQNNEFIGFVVGANSYDEMNYIRTYFPNCYILSPGIGAQNGDLHKTLTNGYHKSYEKILINIGRAITKNPYPQKAAQMYYDQINAILKQNMES
On to B3, for which, in data set [4], the Km came out at 13 µM.
